Results published in patent US20030088057.

Columns and labels:
AKRESAA = molecular target: T1, AKRESAA
T1 chain: AKRESAA

AAKKSAA = molecular target: T2, AAKKSAA
T2 chain: AAKKSAA

ARRASAA = molecular target: T3, ARRASAA
T3 chain: ARRASAA

AKAASAA = molecular target: T4, AKAASAA
T4 chain: AKAASAA

EKRASAA = molecular target: T5, EKRASAA
T5 chain: EKRASAA

RKKKSAA = molecular target: T6, RKKKSAA
T6 chain: RKKKSAA

AKRASEA = molecular target: T7, AKRASEA
T7 chain: AKRASEA

AKRPSAA = molecular target: T8, AKRPSAA
T8 chain: AKRPSAA

AKRKSAA = molecular target: T9, AKRKSAA
T9 chain: AKRKSAA

AAAASKR = molecular target: T10, AAAASKR
T10 chain: AAAASKR

PKRASAA = molecular target: T11, PKRASAA
T11 chain: PKRASAA

KKRKSAA = molecular target: T12, KKRKSAA
T12 chain: KKRKSAA

AARASAA = molecular target: T13, AARASAA
T13 chain: AARASAA

AKRASAA = molecular target: T14, AKRASAA
T14 chain: AKRASAA

KKRASAA = molecular target: T15, KKRASAA
T15 chain: KKRASAA

AAKRSAA = molecular target: T16, AAKRSAA
T16 chain: AAKRSAA

ARKASAA = molecular target: T17, ARKASAA
T17 chain: ARKASAA

KKAASAA = molecular target: T18, KKAASAA
T18 chain: KKAASAA

AKRASPA = molecular target: T19, AKRASPA
T19 chain: AKRASPA

B1: γ-PAK activated by autophosphorylation in the presence of Cdc42(GTPγS) (protein)
chain: SDNGELEDKPPAPPVRMSSTIFSTGGKDPLSANHSLKPLPSVPEEKKPRNKIISIFSGTEKGSKKKEKERPEISPPSDFEHTIHVGFDAVTGEFTGMPEQWARLLQTSNITKLEQKKNPQAVLDVLKFYDSNTVKQKYLSFTPPEKDGFPSGAPALNTKVSETSAVVTEEDDDDEEAAPPVIAPRPDHTKSIYTRSVIDPIPAPVGDSHVDSGAKSSDKQKKKTKMTDEEIMEKLRTIVSIGDPKKKYTRYEKIGQGASGTVFTATDVALGQEVAIKQINLQKQPKKELIINEILVMKELKNPNIVNFLDSYLVGDELFVVMEYLAGGSLTDVVTETCMDEAQIAAVCRECLQALEFLHANQVIHRDIKSDNVLLGMEGSVKLTDFGFCAQITPEQSKRSTMVGTPYWMAPEVVTRKAYGPKVDIWSLGIMAIEMVEGEPPYLNENPLRALYLIATNGTPELQNPEKLSPIFRDFLNRCLEMDVEKRGSAKELLQHPFLKLAKPLSSLTPLIMAAKEAMKSNR
For B1, the rel rate (%), Cdc42-activated (KKRKSAA = 100) (AKRESAA) was 295%, the rel rate (%), Cdc42-activated (KKRKSAA = 100) (AAKKSAA) was 0% and the rel rate (%), Cdc42-activated (KKRKSAA = 100) (ARRASAA) was 134%. For the same protein, the rel rate (%), Cdc42-activated (KKRKSAA = 100) (AKAASAA) was 3%, the rel rate (%), Cdc42-activated (KKRKSAA = 100) (EKRASAA) was 151% and the rel rate (%), Cdc42-activated (KKRKSAA = 100) (RKKKSAA) was 3%. The rel rate (%), Cdc42-activated (KKRKSAA = 100) (AKRASEA) was 88%, the rel rate (%), Cdc42-activated (KKRKSAA = 100) (AKRPSAA) was 11% and the rel rate (%), Cdc42-activated (KKRKSAA = 100) (AKRKSAA) was 158%. For the same protein, the rel rate (%), Cdc42-activated (KKRKSAA = 100) (AAAASKR) was 0%, the rel rate (%), Cdc42-activated (KKRKSAA = 100) (PKRASAA) was 184% and the rel rate (%), Cdc42-activated (KKRKSAA = 100) (KKRKSAA) was 100%. For the same protein, the rel rate (%), Cdc42-activated (KKRKSAA = 100) (AARASAA) was 56%, the rel rate (%), Cdc42-activated (KKRKSAA = 100) (AKRASAA) was 189% and the rel rate (%), Cdc42-activated (KKRKSAA = 100) (KKRASAA) was 181%. For the same protein, the rel rate (%), Cdc42-activated (KKRKSAA = 100) (AAKRSAA) was 0%, the rel rate (%), Cdc42-activated (KKRKSAA = 100) (ARKASAA) was 9% and the rel rate (%), Cdc42-activated (KKRKSAA = 100) (KKAASAA) was 3%. The rel rate (%), Cdc42-activated (KKRKSAA = 100) (AKRASPA) was 3%.

B2: Inactive γ-PAK (protein)
chain: B1 chain
B2 was tested, and the “activity relative to the activated forms” value (all peptides) was <5% of the activity of the activated forms with all peptides.
